Data on 36 molecules can be found in patent US20090280138A1 (OXFORD BIOMEDICA UK, published 2009).

The target in the first assay is T1, MHC class I allele A*0301 monomer (human, biotinylated, bound to streptavidin-coated plate).
T1 construct: also called A3; HLA-A3
Kind of assay: iTopia, multiparametric iScore. The protocol: (§1) The 9 mers were tested for Peptide Binding, Off Rate and Affinity using iTopia Epitope Discovery System in accordance with the manufacturer's instructions. Briefly, 96 well microtitre plates coated with MHC molecules representing different MHC alleles are used to identify candidate peptides. […] Determinations are performed in duplicate using an ELISA plate reader and included allele specific positive controls.
(§2) Finally, multiparametric analysis is performed on the results from these assays and an iScore is generated. The iScore represents a measure of the overall quality of peptide-MHC binding, enabling candidate peptides to be ranked in order of binding quality and allowing rational prioritisation of peptides for functional cellular follow-up studies.
VQGKDRLTC [5T4 9-mer peptide 158] had an iScore of 0.
The molecule DLDCDPILP [5T4 9-mer peptide 171] gave an iScore of 0.
On the same count and under the same terms, to EGYHYRYEI [5T4 9-mer peptide 199] belongs 0; to MRNRVLLEL [5T4 9-mer peptide 165], 0; to IKKWMHNIR [5T4 9-mer peptide 191], 0.
Molecule NRVLLELNS [5T4 9-mer peptide 166] showed an iScore of 0.
The molecule DRLTCAYPE [5T4 9-mer peptide 160] yielded an iScore of 0.
Molecule KWMHNIRDA [5T4 9-mer peptide 192] showed an iScore of 0.
Molecule YHYRYEINA [5T4 9-mer peptide 200] returned an iScore of 0.
Same read-out and setting: to EVVQGKDRL [5T4 9-mer peptide 157] belongs 0; to YLNRKGIKK [5T4 9-mer peptide 188], 0.065; to DPILPPSLQ [5T4 9-mer peptide 173], 0.
In turn, ACRDHMEGY [5T4 9-mer peptide 196] gave an iScore of 0.
Still for that read-out and setting: the same measure for EKMRNRVLL [5T4 9-mer peptide 164]: 0; for IFLLVLYLN [5T4 9-mer peptide 185]: 0.
For the molecule QTSYVFLGI [5T4 9-mer peptide 177], the iScore was 0.
Regarding KGIKKWMHN [5T4 9-mer peptide 190], the iScore amounted to 0.
Turning to ETEVVQGKD [5T4 9-mer peptide 156], the iScore was found to be 0.
The molecule CAYPEKMRN [5T4 9-mer peptide 162] yielded an iScore of 0.
Still for that read-out and setting: to LNSADLDCD [5T4 9-mer peptide 169] belongs 0.
NRKGIKKWM [5T4 9-mer peptide 189] registered an iScore of 0.
On the same count and under the same terms, to LKETEVVQG [5T4 9-mer peptide 155] belongs 0; to GKDRLTCAY [5T4 9-mer peptide 159], 0.
Same read-out and setting: the same measure for RDACRDHME [5T4 9-mer peptide 195]: 0.
Regarding RDHMEGYHY [5T4 9-mer peptide 197], the iScore came out at 0.
In turn, MHNIRDACR [5T4 9-mer peptide 193] yielded an iScore of 0.
The molecule YRYEINADP [5T4 9-mer peptide 201] displayed an iScore of 0.
SYVFLGIVL [5T4 9-mer peptide 178] registered an iScore of 0.
Turning to GAIFLLVLY [5T4 9-mer peptide 184], the iScore was determined as 0.
In turn, NIRDACRDH [5T4 9-mer peptide 194] returned an iScore of 0.
Regarding SADLDCDPI [5T4 9-mer peptide 170], the iScore was found to be 0.
Turning to PPSLQTSYV [5T4 9-mer peptide 175], the iScore was 0.
Consider VLLELNSAD [5T4 9-mer peptide 167], for which the iScore is 0.
In the case of LGIVLALIG [5T4 9-mer peptide 180], the iScore was 0.
In turn, DCDPILPPS [5T4 9-mer peptide 172] registered an iScore of 0.
In turn, LELNSADLD [5T4 9-mer peptide 168] registered an iScore of 0.

A further assay deals with T2, MHC class I allele A*0101 monomer (human, biotinylated, bound to streptavidin-coated plate).
T2 construct: placeholder peptide and b2M removed, then reconstituted with test peptide and fresh b2M; also called A1; HLA-A1
In words: iTopia, multiparametric iScore. On the procedure:
as §1, §2
Regarding VQGKDRLTC [5T4 9-mer peptide 158], the iScore was found to be 0.
Still for that read-out and setting: the same measure for DLDCDPILP [5T4 9-mer peptide 171]: 0; for EGYHYRYEI [5T4 9-mer peptide 199]: 0; for MRNRVLLEL [5T4 9-mer peptide 165]: 0.
The same measure, in the same setting: to IKKWMHNIR [5T4 9-mer peptide 191] belongs 0.
Still for that read-out and setting: to NRVLLELNS [5T4 9-mer peptide 166] belongs 0; to DRLTCAYPE [5T4 9-mer peptide 160], 0.
Molecule KWMHNIRDA [5T4 9-mer peptide 192] returned an iScore of 0.
Consider YHYRYEINA [5T4 9-mer peptide 200], for which the iScore stood at 0.
EVVQGKDRL [5T4 9-mer peptide 157] displayed an iScore of 0.
Turning to YLNRKGIKK [5T4 9-mer peptide 188], the iScore was 0.
Molecule DPILPPSLQ [5T4 9-mer peptide 173] displayed an iScore of 0.
In the case of ACRDHMEGY [5T4 9-mer peptide 196], the iScore came out at 0.
EKMRNRVLL [5T4 9-mer peptide 164] gave an iScore of 0.
Turning to IFLLVLYLN [5T4 9-mer peptide 185], the iScore turned out to be 0.
The same measure, in the same setting: to QTSYVFLGI [5T4 9-mer peptide 177] belongs 0.027.
Regarding KGIKKWMHN [5T4 9-mer peptide 190], the iScore was determined as 0.
Take ETEVVQGKD [5T4 9-mer peptide 156]: the iScore is 0.
CAYPEKMRN [5T4 9-mer peptide 162] registered an iScore of 0.
Molecule LNSADLDCD [5T4 9-mer peptide 169] yielded an iScore of 0.
Molecule NRKGIKKWM [5T4 9-mer peptide 189] gave an iScore of 0.
Regarding LKETEVVQG [5T4 9-mer peptide 155], the iScore came to 0.
On the same count and under the same terms, the same measure for GKDRLTCAY [5T4 9-mer peptide 159]: 0; for RDACRDHME [5T4 9-mer peptide 195]: 0; for RDHMEGYHY [5T4 9-mer peptide 197]: 0.
Turning to MHNIRDACR [5T4 9-mer peptide 193], the iScore is 0.
Same read-out and setting: to YRYEINADP [5T4 9-mer peptide 201] belongs 0.
In turn, SYVFLGIVL [5T4 9-mer peptide 178] returned an iScore of 0.
In the case of GAIFLLVLY [5T4 9-mer peptide 184], the iScore stood at 0.
For NIRDACRDH [5T4 9-mer peptide 194], the iScore turned out to be 0.
SADLDCDPI [5T4 9-mer peptide 170] registered an iScore of 0.
Molecule PPSLQTSYV [5T4 9-mer peptide 175] came in with an iScore of 0.
The molecule VLLELNSAD [5T4 9-mer peptide 167] displayed an iScore of 0.
Still for that read-out and setting: the same measure for LGIVLALIG [5T4 9-mer peptide 180]: 0; for DCDPILPPS [5T4 9-mer peptide 172]: 0.
Take LELNSADLD [5T4 9-mer peptide 168]: the iScore stood at 0.

Another assay addresses T3, MHC class I allele A*0201 monomer (human, biotinylated, bound to streptavidin-coated plate).
T3 construct: also called A2; HLA-A2
Kind of assay: iTopia, multiparametric iScore. The protocol: as §1, §2
Turning to VQGKDRLTC [5T4 9-mer peptide 158], the iScore worked out at 0.074.
Molecule DLDCDPILP [5T4 9-mer peptide 171] yielded an iScore of 0.
On the same count and under the same terms, the same measure for EGYHYRYEI [5T4 9-mer peptide 199]: 0; for MRNRVLLEL [5T4 9-mer peptide 165]: 0.
The molecule IKKWMHNIR [5T4 9-mer peptide 191] displayed an iScore of 0.181.
The same measure, in the same setting: to NRVLLELNS [5T4 9-mer peptide 166] belongs 0.031.
DRLTCAYPE [5T4 9-mer peptide 160] yielded an iScore of 0.
On the same count and under the same terms, the same measure for KWMHNIRDA [5T4 9-mer peptide 192]: 0.45.
YHYRYEINA [5T4 9-mer peptide 200]: the iScore amounted to 0.
For EVVQGKDRL [5T4 9-mer peptide 157], the iScore came to 0.139.
For the molecule YLNRKGIKK [5T4 9-mer peptide 188], the iScore turned out to be 0.118.
Same read-out and setting: the same measure for DPILPPSLQ [5T4 9-mer peptide 173]: 0; for ACRDHMEGY [5T4 9-mer peptide 196]: 0.
Molecule EKMRNRVLL [5T4 9-mer peptide 164] gave an iScore of 0.096.
Take IFLLVLYLN [5T4 9-mer peptide 185]: the iScore stood at 0.
QTSYVFLGI [5T4 9-mer peptide 177] returned an iScore of 0.127.
For the molecule KGIKKWMHN [5T4 9-mer peptide 190], the iScore was 0.
Take ETEVVQGKD [5T4 9-mer peptide 156]: the iScore stood at 0.
Molecule CAYPEKMRN [5T4 9-mer peptide 162] showed an iScore of 0.
On the same count and under the same terms, to LNSADLDCD [5T4 9-mer peptide 169] belongs 0.
Molecule NRKGIKKWM [5T4 9-mer peptide 189] gave an iScore of 0.138.
For the molecule LKETEVVQG [5T4 9-mer peptide 155], the iScore came to 0.
On the same count and under the same terms, to GKDRLTCAY [5T4 9-mer peptide 159] belongs 0; to RDACRDHME [5T4 9-mer peptide 195], 0.08.
Still for that read-out and setting: the same measure for RDHMEGYHY [5T4 9-mer peptide 197]: 0.
Take MHNIRDACR [5T4 9-mer peptide 193]: the iScore amounted to 0.093.
Molecule YRYEINADP [5T4 9-mer peptide 201] displayed an iScore of 0.
For SYVFLGIVL [5T4 9-mer peptide 178], the iScore was 0.118.
In turn, GAIFLLVLY [5T4 9-mer peptide 184] displayed an iScore of 0.
The molecule NIRDACRDH [5T4 9-mer peptide 194] showed an iScore of 0.
The same measure, in the same setting: the same measure for SADLDCDPI [5T4 9-mer peptide 170]: 0; for PPSLQTSYV [5T4 9-mer peptide 175]: 0.145.
VLLELNSAD [5T4 9-mer peptide 167] displayed an iScore of 0.105.
Still for that read-out and setting: to LGIVLALIG [5T4 9-mer peptide 180] belongs 0; to DCDPILPPS [5T4 9-mer peptide 172], 0.
Still for that read-out and setting: to LELNSADLD [5T4 9-mer peptide 168] belongs 0.

The target in a further assay is T4, MHC class I allele B*0702 monomer (human, biotinylated, bound to streptavidin-coated plate).
T4 construct: also called B7; HLA-B7
In words: iTopia, multiparametric iScore. On the procedure: as §1, §2
With VQGKDRLTC [5T4 9-mer peptide 158], the iScore came out at 0.
For DLDCDPILP [5T4 9-mer peptide 171], the iScore came to 0.
EGYHYRYEI [5T4 9-mer peptide 199] displayed an iScore of 0.
In turn, MRNRVLLEL [5T4 9-mer peptide 165] showed an iScore of 0.
IKKWMHNIR [5T4 9-mer peptide 191] returned an iScore of 0.
With NRVLLELNS [5T4 9-mer peptide 166], the iScore came out at 0.
As for DRLTCAYPE [5T4 9-mer peptide 160], the iScore was found to be 0.
The same measure, in the same setting: the same measure for KWMHNIRDA [5T4 9-mer peptide 192]: 0.
As to YHYRYEINA [5T4 9-mer peptide 200], the iScore was 0.
Turning to EVVQGKDRL [5T4 9-mer peptide 157], the iScore was found to be 0.
Turning to YLNRKGIKK [5T4 9-mer peptide 188], the iScore turned out to be 0.089.
In turn, DPILPPSLQ [5T4 9-mer peptide 173] returned an iScore of 0.
As for ACRDHMEGY [5T4 9-mer peptide 196], the iScore was found to be 0.
Turning to EKMRNRVLL [5T4 9-mer peptide 164], the iScore turned out to be 0.
For IFLLVLYLN [5T4 9-mer peptide 185], the iScore turned out to be 0.
The molecule QTSYVFLGI [5T4 9-mer peptide 177] displayed an iScore of 0.
Same read-out and setting: to KGIKKWMHN [5T4 9-mer peptide 190] belongs 0; to ETEVVQGKD [5T4 9-mer peptide 156], 0; to CAYPEKMRN [5T4 9-mer peptide 162], 0.
Still for that read-out and setting: the same measure for LNSADLDCD [5T4 9-mer peptide 169]: 0.
In turn, NRKGIKKWM [5T4 9-mer peptide 189] gave an iScore of 0.
In the case of LKETEVVQG [5T4 9-mer peptide 155], the iScore is 0.
Still for that read-out and setting: to GKDRLTCAY [5T4 9-mer peptide 159] belongs 0.
Same read-out and setting: the same measure for RDACRDHME [5T4 9-mer peptide 195]: 0; for RDHMEGYHY [5T4 9-mer peptide 197]: 0; for MHNIRDACR [5T4 9-mer peptide 193]: 0.
On to YRYEINADP [5T4 9-mer peptide 201], for which the iScore was 0.
In turn, SYVFLGIVL [5T4 9-mer peptide 178] had an iScore of 0.045.
Same read-out and setting: to GAIFLLVLY [5T4 9-mer peptide 184] belongs 0; to NIRDACRDH [5T4 9-mer peptide 194], 0.
In the case of SADLDCDPI [5T4 9-mer peptide 170], the iScore was determined as 0.
Regarding PPSLQTSYV [5T4 9-mer peptide 175], the iScore is 0.
Same read-out and setting: to VLLELNSAD [5T4 9-mer peptide 167] belongs 0.
The molecule LGIVLALIG [5T4 9-mer peptide 180] yielded an iScore of 0.
As to DCDPILPPS [5T4 9-mer peptide 172], the iScore was 0.
In turn, LELNSADLD [5T4 9-mer peptide 168] had an iScore of 0.
